This is an account of results in paper PMC11071394.

Where “and” joins values, the source holds several entries; their conditions need not be identical. Equal entries are not always repeated.

The target of this test is Sg Enc, Family 2B encapsulin shell protein from Streptomyces griseus (expressed in S. coelicolor A3(2)) (Streptomyces griseus). The test can be described thus: cryo-EM structure.

With “Sg Enc, Family 2B encapsulin shell protein from Streptomyces griseus (expressed in S. coelicolor A3(2)) (natural protein)”, the stoichiometry N (usually the number of molecules, sites or subunits per partner or assembly) came out at 60 protomers. Turning to “Sg 2-methylisoborneol synthase (2-MIBS) from Streptomyces griseus, co-expressed with Sg Enc (enzyme)”, the 2-MIBS dimers per shell (dimers per shell) was 3 and 4.
